The DeepSol protein solubility set

Test: soluble on expression in E. coli; label from the status in PepcDB or PDB records

Question: For “MGSDKIHHHHHHMQTLPTPTTSSNTANQSTFDTTIKRRKTRPVKVGNVTIGGGYPVVVQSMINEDTLDIDGSVAAIRRLHEIGCEIVRVTVPSIAHAVALAEIKQKLITTYQDVPIVADVHHNGMKIALEVAKHIEKVRINPGLYVFEKPNTNRTEYTQAEFEEIGEKIRETLAPLVITLRDQGKAMRIGVNHGSLAERMLFTYGDTPEGMVESALEFIRICESLDFRNIVISMKASRVPVMVAAYRLMAKRMDDLGMDYPLHLGVTEAGDGEYGRIKSTAGIATLLADGIGDTIRVSLTEAPEKEIPVCYSILQALGLRKTMVEYVACPSCGRTLFNLEEVLHKVRESTKHLTGLDIAVMGCIVNGPGEMADADYGYVGKTPGYISLYRGREEIKKVPEDKGVEELINLIKADGRWVDP”, which “soluble on expression in E. coli” value is on record?
Answer: not soluble

Question: With “MGSDKIHHHHHHMRAPQAQSKLSEVLEFLQQYEGTINPNKLIFGRWIKDAQALRLVDPSEGYMMEAWVYRAQGKLDKALEYMKNAYRLDSSSSSVNVNYASLLLSSGDFNESEKLCIKRIRLDRTNTDIFKILITNTLHTFNQDALFEAIELFIPTNPEAEKVIGQAKKRIFDFDHMQSTLESANLSIEVYKRFSSITQKVRNTRYIGESRTVINCEVNELGTFLLIDEALVNASIEDCLSMYDDLVEEIINDDHYFEEYKKIIFNFIPTTSTAINSAYQLEI” as the sequence, how does the “soluble on expression in E. coli” value read?
Answer: not soluble

Question: With “MGSDKIHHHHHHMRIAAYENFITKLLMNNKCMDINEIDKYILRTTSNNYNLVKKQLDRTNKLLEERYERYGCLTEEDNVEALKKGYYDLGKIGLTLEEIRKKIAKFQIDKESPMGIQIEKDWNFATFLLQDLLQLENMNLITYSRLLEERLSELSKNKTNKKTYNKPNNKETTIKTNSPTTNSSDIMTIDEICALLHLSKSKIYHMACAHEIPHHKLNPSKKGRLYFFRSEIEEWLRNKRIRTVDEFLLQFEN” as the sequence, how does the “soluble on expression in E. coli” value read?
Answer: not soluble

Question: Which “soluble on expression in E. coli” value does the source give for “MGSDKIHHHHHHMRIQVASDLHHELAVSNSAMAARLEHADDAVDVLVLAGDIHNQTGAIDLYADYPVPVVYVCGNHEFYGTEMLQLLPELRRRAVGTSVKLLEKDELILNNVRFLGCTMWTDYHAFPLCLNTAMEYARNHMLDHQRIRESNNGRFEPEDAAEEQRAALEFLVRKIREPFPGKTVVITHHAPSARSIHQHEQNNPLVPAFASNLEFLASEADLWIHGHIHLSSDYRLGNCRVICNPRGYPGRRNRSNPALAYENAQFDARKVIDV” here?
Answer: not soluble

Question: Which “soluble on expression in E. coli” value does the source give for “MGSDKIHHHHHHMRKDEIMHIVSCADDNYARHLGGMFVSLLTNMDQEREVKLYVIDGGIKPDNKKRLEETTLKFGVPIEFLEVDTNMYEHAVESSHITKAAYYRISIPDLIKDESIKRMIYIDCDALVLEDISKLWDLDIAPYTVAAVEDAGQHERLKEMNVTDTGKYFNSGIMIIDFESWRKQNITEKVINFINEHPDEDFLVLHDQDALNAILYDQWYELHPRWNAQTYIMLKLKTPSTLLGRKQYNETRENPAIVHFCGGEKPWNSNTKHPYRDEYFHYMSYTKWNTIGNPAINQ” here?
Answer: not soluble

Question: With “MGSDKIHHHHHHMRKLKREAYKLNNIKMLQQDVKYSEEVIEAEFSVEGYSLIDYKRSYTLSRALVNGKWIVYDGNRLESSQKIKEFEICEDFYHESVKAWPNKEKYSRLFTNIKLNEDDQLKVISKKISKSILIHDVKECREEKVVNYVEYNDLNFSYAGNPKDIPSIVEYLRASQSQLTSPSRQVLTESGRLTFILDSEIVASIFHYVLRNFLNGNSPKLKLNEKISSEITIYDNPLNSFSSSFSVFDDEGVKTKKKEIIGDGIITNYLGTLTSKYGEAGNARGILPKPDYFSLEVKQGDWSLNELIDESRGAYIAMGVKKSELIRNSIRITPRSVVKIGQGQIFFREIAIPLQELVTIDAVTRENRGVFIDEEHGGVTPYVRMKVRAILY” as the sequence, how does the “soluble on expression in E. coli” value read?
Answer: not soluble

Question: Which “soluble on expression in E. coli” value does the source give for “MGSDKIHHHHHHMRKMRKASRLFEIIQILRLARQPVTAAMIAERLEVTIRSIYRDIAALQAMRVPIEGGRGIGYILRPGFDLPPLMFSIEEMEAIVLSLALLERTGDDELKQAAKRVSSKIAGAVPPPLRQTFDANALHAWGFAAPSAGTIDLALVRRAIRDEEKLDLSYRDEAGRTTQRIIRPIALIYYAEAVNTVAWCELRQAIRNFRSDRIEGCQPTGLHFKGEGDRLRQIWVEGWETPAVGG” here?
Answer: not soluble

Question: Which “soluble on expression in E. coli” value does the source give for “MGSDKIHHHHHHMRKYSQRHIPVMVREVIEFLKPEDEKIILDCTVGEGGHSRAILEHCPGCRIIGIDVDSEVLRIAEEKLKEFSDRVSLFKVSYREADFLLKTLGIEKVDGILMDLGVSTYQLKGENRGFTFEREEPLDMRMDLESEVTAQKVLNELPEEELARIIFEYGEEKRFARRIARKIVENRPLNTTLDLVKAVREALPSYEIRRRKRHFATKTFQAIRIYVNRELENLKEFLKKAEDLLNPGGRIVVISFHSLEDRIVKETFRNSKKLRILTEKPVRPSEEEIRENPRARSGRLRAAERIEEGGD” here?
Answer: not soluble

Question: Which “soluble on expression in E. coli” value does the source give for “MGSDKIHHHHHHMRLEELVNNNYNKLNENDLHIWKYICCNKRECCTISIDELAKKCNISRTTISRFTQKLSLEGFGEFKVRLKLELGVSNNFKSSSVEDVYQDYYKTIKDMKEKDFLEICRMIYGAKHLFVYGTGAVQIAAANELKRHFISVNKFFVTVHGEAEMNMVLETATDEDLIVIISLSGEKKSAVEYLKKVKVKNIPSISITKLSDNSIARLCDENLYIITRNIKIEGVVTCENVGQYFILIEILFLKYITYLGQLKKEDTIS” here?
Answer: not soluble

Question: With “MGSDKIHHHHHHMRLILSQCLANLSVRFLMNRNSYNKIAHLWNVARNGFFGREREYLDAILSVAPIGSTILDLGCGTGRPMAEYIVSRGRCVLGVDQSEEMLRLARQKLPHEQWVLSSIESYEPVEGYHGALLWDSLFHIRRTEHELIVSKVVRGLPSGGRLMLTVGGSAHPEFTDFMYGEEFYYDSNTPQETETFLQRLSCRMVIGEYMNLPDGGRDKGRYAIVAEKI” as the sequence, how does the “soluble on expression in E. coli” value read?
Answer: not soluble

Question: Which “soluble on expression in E. coli” value does the source give for “MGSDKIHHHHHHMRLLFRKAGEFFRDFVSIFKHISDDLEMYLKLDPAAESKLQVFFFYASFQGLMWYRFAHFFYKWKLKVLAYLIYYFVRVVFSMDIHPAARIAPGVVIDHGIGVVIGSTASVGRGTLIYHGVTLGTRKPCSGKRHPDVGENVMIGTGAKILGPIRVGNNAVVGANAVVLEDVPDGAVVVGVPARIVKWRRDFCDDGKTDREHSYSETRFDRLENLLETGKE” here?
Answer: not soluble

Question: Which “soluble on expression in E. coli” value does the source give for “MGSDKIHHHHHHMRLTCAIIDDEPLAVSLLESYVLKTPFLDLQGTYNSALDALSDLRDRPVDLLFLDIQMPELSGLEFSRILNADTRVIFTTAFDQYAVDSYRVNALDYLLKPISYPDFLASANKALRWYELLRKPVSSEEKEGSAPIAEKGGMESIFVKSEYKLLQIELRKILYIEGLKDYVKIFVEDEPRPVLSLMSMKSLEDMLPSDRFVRVHRSFIVQPEKIKVIERNRIVFGKEYIPISDNYKQHFLEMIERRSILPK” here?
Answer: not soluble

Question: For “MGSDKIHHHHHHMRLVNIAYVGEGEVLARPLVSPNGKVLLQAGVKLTRNYIDKLSRLGFDTMFIEDDTFQDVEIYSAVSIKTREAAYASLENLSKNLNEAQPHTVNLGEVKKAVQNIIADLLYSKDMLGNVMEIQGYDDYTFHHSVNTTIIALIMGISMGWHNGKLLELGMGVLMHDVGKIKIPSEILNKRGPLTPEEFAEIKKHAEYGFEILRKNHDINLLSAHIALQHQERWDGSGYPRGLKGNQIHEYGRLAAVADVYEALTSKRVYRNALQPYEAYEYVIANSDTLFEPKVVQNTFSKCITPYPTGTGVRLTNGLRGNVVKQNFTFPTRPYVRMTHEGEIRLIAPIDYNLAEHPSLMIVGIENK”, which “soluble on expression in E. coli” value is on record?
Answer: not soluble

Question: With “MGSDKIHHHHHHMRMERVVERVAVTGAEAVANAMRQIEPDVVAAYPITPQTPIVEYFARFVADGVVRTEMIPVESEHSAMSAVVGAAAAGARAMTATSANGLALMHEIVYIAASYRLPIVMPVVNRALSGPINIHCDHSDAMAERDSGWIQLFAETNQEAYDFTILAVRLAEHEDVRLPVMVNLDGFILSHGVEPVEFYPDELVKKFVGELKPMYPLLDTEHPVTWGPLDLYDYYFEHKRQQIEAMENVKKVFPEIAKEFEETFGRKYWFVEPYRMEDAEHVMVALGSTNSTIKYVVDELREEGYKVGSLKIWMFRPFPKEQLQELLNGRKSVVVLDRAVSFGAEAPLYEAVKSALYEVAARPMLGSYVYGLGGRDIKPEHIRKAFEDAINGNLIADEQRYLGLRE” as the sequence, how does the “soluble on expression in E. coli” value read?
Answer: not soluble

Question: For “MGSDKIHHHHHHMRSFTQSSKPIFKDHIVQQSSLVANNYRFIGPRLIDNTPVLFGSFSVVQLNPHLILHTADVINRHNMKTQNLLDSAIKLAIVVSGNAHISFGHQELHLGESQPASLIALTEPTMFTRIGKRDEYERTITLTFDREWLYGNMMDTVGDWQAIHDFTQTHLATHLWTPSRQARAIALQTLDANPCQTPLQRLYLETQCMSLIIEAFTSLTASVAQEKSSGVTLRGYHRIQQIRDMLESGSADHLSMSEIAKSVNMSESTLQRHFRQTFNMSVFEYLRNCRLQRAMLALQKDGIGIAQAASIAGYNSPANFATALRRAFGITPGQLKDRF”, which “soluble on expression in E. coli” value is on record?
Answer: not soluble

Question: With “MGSDKIHHHHHHMRTFRLVIACPDRVGIVAKVSNFLASHNGWITEASHHSDNLSGWFFMRHEIRADTLPFDLDGFREAFTPIAEEFSMDWRITDSAQKKRVVLMASRESHCLADLLHRWHSDELDCDIACVISNHQDLRSMVEWHDIPYYHVPVDPKDKEPAFAEVSRLVGHHQADVVVLARYMQILPPQLCREYAHQVINIHHSFLPSFVGAKPYHQASLRGVKLIGATCHYVTEELDAGPIIEQDVVRVSHRDSIENMVRFGRDVEKMVLARGLRAHLEDRVLVHDNKTVVFD” as the sequence, how does the “soluble on expression in E. coli” value read?
Answer: not soluble

Question: With “MGSDKIHHHHHHMRTMVAVRLRNLVESDRERLLIWRNSPDVSAYMYSDHKIGHEEHDHWFDVARHDPRRRYWIIEADGEPVGLANLADIDLVHRRCAWAYYLASPKVRGLGVGSFVEFQIIEYVFNQLHLNKLWCEVLISNESVWRLHELYGFQREALFRQHVMKQGHEVDVIGLGLLASDWAARRDAMAERLCAKGYTIPDLTCRAA” as the sequence, how does the “soluble on expression in E. coli” value read?
Answer: not soluble

Question: With “MGSDKIHHHHHHMRVAIIGMGTAGVSVLRELVKHPKFNQLDIDLYDDKVNMGQGVPFQNDSSELLINMPSKKMSLNLDDETEFWKWYKQQTDFNFDEPAYLPRFVFGHYMKSYLSMFTKKYPNISTNYNKVQEIYTNSNIDETNLTYYICTTNSEQSWQAYDYVFLTCGTFAYHDPYNLKGKKGYIATPYPTYNTLDEVNELDDIAIIGTGLASLDVVRYVAAHHPKLPITMTSRSAHLPSVRGTMIDVTFKYLTKDKLNDIKKHHFGNAPLDTLVSLFLKECAEYDIDFKKLVYRRTGNHIADLKYDLARPTEMGIFQSMIEHLKENLNWIWNSLSIEDQHQFNQKYSKMIQLNSNPMPPRTAELIIELIENKSLILKKDLEDVKHDGKLYYFSYKNQESVDIYNVVINATGAKSHLNELDQDDQLIKNLENRQIVQAHPMGGIQIIPETNQVISPRFGTLTNMIAIGQMTNGVNKLRNGVKMIVEQVAHKVSQLYDALESNEQQQRSDNQ” as the sequence, how does the “soluble on expression in E. coli” value read?
Answer: not soluble

Question: Which “soluble on expression in E. coli” value does the source give for “MGSDKIHHHHHHMRYSPEALIAFVETVSCGSFSAAARRLRKSQSTISIAIAHLEADLGFSLFDRSSRQPVLTEEGKRVLSYVQAILSASDRLDEVALTLSGETEARLTFVLSDTLHPDSLEELMAQFDRQFPHTEFECLIGENDDVIDLLQKGRAQIGLIEARDDYPTDIGAARLPVQSWMGVYVATTHPLASQTNLQWEQLHTWRELRLNTYLDSNANITRGPAWSAPNYLLLLSMAVQGFGWCVLPCALVEEFAAEKPLAQLDVPGWPRAIAIDLLWNKKTPPGTAGNWLRYHLQQK” here?
Answer: not soluble

Question: For “MGSDKIHHHHHHMSAFNAVQVGRRVLAVEADALRVLADSLGEAFANAVETIFNAKGRVVCTGMGKSGHVARKIAATLASTGTQAMFVHPAEASHGDLGMIGPDDVVLALSKSGAGRELADTLAYAKRFSIPLIAMTAVADSPLGQAGDILLLLPDAPEGTAEVNAPTTSTTLQIALGDAIAVALLERRGFTASDFRVFHPGGKLGAMLRTVGDLMHGADELPLVAADAAMPDALLVMSEKRFGAVGVVDNAGHLAGLITDGDLRRHMDGLLTHTAGEVMTHAPLTIGPGALAAEALKVMNERRITVLFVVERERPVGILHVHDLLRAGVI”, which “soluble on expression in E. coli” value is on record?
Answer: not soluble
